Assay results taken from US10450355B2, “Lectins and uses thereof” (THE REGENTS OF THE UNIVERSITY OF MICHIGAN, priority 2014, dated 2019).
Positions count from the first letter of the chain named. In names and notes the source's numbering stands.

Legend:
[1] = test system: peripheral blood lymphocytes (PBL); test: Mitogenic activity by BrdU incorporation; assay type: cell-based; details: for stimulation index (mitogenic activity): PBL, three days with lectin, BrdU, less than ten considered non-mitogenic; for mitogenicity, in words: relative to WT BanLec
[2] = test system: the lectins (BanLec WT and H84T mutant); test: Isothermal titration calorimetry, general statement for the lectins; set-up: species or system banana; details: ITC, 25° C., PBS; relatively low binding constants
Experimental: Isothermal Titration Calorimetry
Binding constants of the lectins for methyl-α-D-mannopyranoside were determined by isothermal titration calorimetry using a MicroCal VP-ITC calorimeter (Micro-Cal, Northampton, Mass., USA) at 25° C. Data were analyzed using Origins Ver. 7 software supplied with the instrument. The lectin in PBS, generally at approx. 0.2 mM, was titrated with the ligand at 20 mM in the same buffer. The titration volumes were adjusted so that the titration proceeded to at least a 10-fold molar excess of ligand over lectin monomers. The relatively low binding constants (Ka<1000 M^−1) precluded obtaining full saturation or a definite sigmoidal titration curve from which a definitive stoichiometry can be calculated; thus, the stoichiometry was fixed at 1 for curve-fitting to determine Ka; values between about 0.5 and 2-3 had little effect on the Ka-value obtained.

[3] = target: BanLec variant H84T (recombinant, 6×His tag) (Musa acuminata, UniProt O22321, H84T); test: biochemical; assay type: binding, banana
[4] = target: BanLec variant H84T (recombinant, 6×His tag); test: biochemical; assay type: binding, banana; details: for Fold Change (Ka, WT vs H84T): WT compared with H84T
[5] = target: T1, BanLec, natural (banana-derived) (Musa acuminata, UniProt O22321); test: Isothermal titration calorimetry, natural BanLec compared with rBanLec; assay type: binding; details: ITC
T1 sequence (O22321 1-141): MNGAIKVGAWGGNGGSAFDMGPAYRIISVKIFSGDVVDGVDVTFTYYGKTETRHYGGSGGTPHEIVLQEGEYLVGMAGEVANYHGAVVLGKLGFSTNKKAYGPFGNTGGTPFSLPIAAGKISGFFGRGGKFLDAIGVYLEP

[6] = target: T2, BanLec, recombinant wild type (rBanLec, codon-optimized cDNA from gi71042661, C-terminal 6×His tag) (Musa acuminata, UniProt O22321); test: Isothermal titration calorimetry, binding constants of lectin for sugar; set-up: species or system banana; details: WT BanLec, ITC, 25° C., PBS, stoichiometry fixed at 1
T2 sequence (O22321 1-141): T1 sequence (O22321 1-141)

[7] = test system: HIV-1 pseudo-typed virus; assay type: cell-based; details: for anti-HIV activity, in words: relative to WT BanLec
[8] = test system: HIV-1 JR-CSF; assay type: in vivo, BLT humanized mice; details: 75 μg vaginally ten minutes before vaginal HIV-1 JR-CSF challenge; six weeks; p=0.0359 vs PBS
[9] = test system: 1918 H1N1 pandemic influenza strain; assay type: cell-based, influenza A virus
[10] = test system: formaldehyde-treated rabbit erythrocytes; test: Haemagglutination assay; assay type: cell-based; details: rabbit red blood cells
[11] = test system: PBMCs from healthy donors; test: Bio-Plex cytokine assay; assay type: cell-based, human; details: PBMC from multiple donors, 72 h
[12] = Aggregation in solution during NMR studies; assay type: physicochemical; details: NMR samples
[13] = test system: CD4+ peripheral blood mononuclear cells (PBMC); test: Flow cytometry of activation marker CD69; assay type: cell-based
[14] = test system: H5N1 avian influenza strain; assay type: cell-based, influenza A virus

## GNA: Galanthus nivalis agglutinin, non-mitogenic negative control [reference compound]
[1]
  stimulation index (mitogenic activity): less than ten

## CO[C@H]1O[C@H](CO)[C@@H](O)[C@H](O)[C@@H]1O [methyl-α-mannoside, Methyl α-d-mannopyranoside]
[2]
  Ka: < 1000 M⁻¹
[3]
  Kd: 2.83 µM
[4]
  KD-values, rBanLec vs H84T: similar
  Fold Change (Ka, WT vs H84T): 1.09
[5]
  affinity for the ligand, BanLec vs rBanLec: no difference
[6]; read-out: Ka (converted)
  Kd: 2.61 µM

## Griffithsin [reference compound]
[1]
  stimulation index (mitogenic activity): less than ten

## OC[C@H]1O[C@@H](O[C@H]2[C@H](O)[C@H](O)C(O)O[C@@H]2CO)[C@@H](O)[C@@H](O)[C@@H]1O (some centres unmarked) [mannobiose]
[3]; H84T BanLec, ITC, 25° C., PBS, stoichiometry fixed at 1
  Ka: 227 mM⁻¹
[4]
  KD-values, rBanLec vs H84T: similar
  Fold Change (Ka, WT vs H84T): 1.32
[6]
  Ka: 300 mM⁻¹

B1: D133G: BanLec mutant with a mutation in the first or second Greek Key sugar binding motif (protein)
chain: T1 sequence (O22321 1-141) with D133G
[1]
  mitogenicity, in words: abolished the mitogenic activity

B2: H84F: BanLec mutant, H84 replaced by phenylalanine (protein)
chain: T1 sequence (O22321 1-141) with H84F
[7]
  anti-HIV activity, in words: minimal effects
[1]
  mitogenicity, in words: minimal effects

B3: H84D: BanLec mutant, H84 replaced by aspartic acid (protein)
chain: T1 sequence (O22321 1-141) with H84D
[7]
  anti-HIV activity, in words: marked loss
[1]
  mitogenicity, in words: marked loss

B4: H84G: BanLec mutant, H84 replaced by glycine (protein)
chain: T1 sequence (O22321 1-141) with H84G
[7]
  anti-HIV activity, in words: preserving some antiviral HIV activity
[1]
  mitogenicity, in words: reasonably similar drop in mitogenicity as H84T

B5: H84Y: BanLec mutant, H84 replaced by tyrosine (protein)
chain: T1 sequence (O22321 1-141) with H84Y
[7]
  anti-HIV activity, in words: minimal effects
[1]
  mitogenicity, in words: minimal effects

B6: H84E: BanLec mutant, H84 replaced by glutamic acid (protein)
chain: T1 sequence (O22321 1-141) with H84E
[7]
  anti-HIV activity, in words: marked loss
[1]
  mitogenicity, in words: marked loss

B7: H84W: BanLec mutant, H84 replaced by tryptophan (protein)
chain: T1 sequence (O22321 1-141) with H84W
[7]
  anti-HIV activity, in words: minimal effects
[1]
  mitogenicity, in words: minimal effects

B8: H84T: BanLec variant in which the histidine at position 84 is replaced by a threonine (protein)
chain: T1 sequence (O22321 1-141) with H84T
[7]
  inhibition of HIV replication (IC50), in words: low nanomolar range
[7]; multiple different isolates of HIV
  anti-HIV inhibition relative to WT BanLec: equal to or within one log
[8]
  mice with detectable levels of viral RNA in the plasma: none of the mice
[9]
  inhibition of replication of 1918 H1N1 virus: very active and equally inhibited replication
[10]
  minimal agglutination concentration: 487 µg/mL
[11]
  cytokine/chemokine production: markedly reduced production of cytokines
[12]
  aggregation over time in solution: tendency to aggregate over time
[1]; concentrations up to 1 μM
  stimulation of proliferation of lymphocytes: did not stimulate the proliferation of lymphocytes
[13]
  cell surface expression of activation marker CD69: very little upregulation
[14]
  inhibition of replication of H5N1 avian influenza virus: very active and equally inhibited replication

B9: H84L: BanLec mutant, H84 replaced by leucine (protein)
chain: T1 sequence (O22321 1-141) with H84L
[7]
  anti-HIV activity, in words: marked loss
[1]
  mitogenicity, in words: marked loss

B10: H84Q: BanLec mutant, H84 replaced by glutamine (protein)
chain: T1 sequence (O22321 1-141) with H84Q
[7]
  anti-HIV activity, in words: marked loss
[1]
  mitogenicity, in words: marked loss

B11: H84K: BanLec mutant, H84 replaced by lysine (protein)
chain: T1 sequence (O22321 1-141) with H84K
[7]
  anti-HIV activity, in words: marked loss
[1]
  mitogenicity, in words: marked loss
